# Reference: the supplement of paper PMC10567573
# B1: CAMK2A (parent)
# chain: CIQQILEAVLHCHQMGVVHRDLKP
# B2: TEKT4 (parent)
# chain: SEVEELNMSLTALREKLLEAEQSL
# Variants of: B1
# Assay: protein stability index of a GFP-peptide fusion (GPS, HEK-293T) (PSI 1-6); higher = more stable
# Conditions: c terminus: a fixed tail appended
# 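Also: lentivirally expressed fusions sorted by FACS into six bins by GFP to DsRed ratio, PSI derived from sequencing read proportions per bin multiplied by bin number.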
row,Variant,protein stability index
1,FIQQILEAVLHCHQMGVVHRDLKP [C1F],3.55
2,DIQQILEAVLHCHQMGVVHRDLKP [C1D],2.12
3,HIQQILEAVLHCHQMGVVHRDLKP [C1H],1.56

# Variants of: B2
# Assay: as above
# Conditions: c terminus: a fixed tail appended
row,Variant,protein stability index
1,SEVEELNMSLTALREKLLEARQSL [E21R],3.26
2,SEVEELNMSLTALREKLLEASQSL [E21S],2.94
3,SEVEELNMSLTALREKLLEADQSL [E21D],4.83
4,SEVEELNMSLTALREKLLEAIQSL [E21I],2.06
5,SEVEELNMSLTALREKLLEALQSL [E21L],2.81
6,SEVEELNMSLTALREKLLEAFQSL [E21F],2.62
7,SEVEELNMSLTALREKLLEANQSL [E21N],3.34
8,SEVEELNMSLTALREKLLEAWQSL [E21W],2.36
9,SEVEELNMSLTALREKLLEAHQSL [E21H],3.06
10,SEVEELNMSLTALREKLLEAAQSL [E21A],2.8
11,SEVEELNMSLTALREKLLEAMQSL [E21M],3.16
12,SEVEELNMSLTALREKLLEAYQSL [E21Y],2.77
13,SEVEELNMSLTALREKLLEAQQSL [E21Q],3.44
14,SEVEELNMSLTALREKLLEAVQSL [E21V],2.36
15,SEVEELNMSLTALREKLLEACQSL [E21C],2.23
16,SEVEELNMSLTALREKLLEAPQSL [E21P],2.45
17,SEVEELNMSLTALREKLLEATQSL [E21T],2.97
18,SEVEELNMSLTALREKLLEAKQSL [E21K],3.42
19,SEVEELNMSLTALREKLLEAGQSL [E21G],3.51
20,SEVEELNMSLTALREGLLEAEQSL [K16G],3.58
21,SEVEELNMSLTALRELLLEAEQSL [K16L],2.85
22,SEVEELNMSLTALRESLLEAEQSL [K16S],3.74
23,SEVEELNMSLTALREYLLEAEQSL [K16Y],2.67

row,Variant,protein stability index
1,SEVEELNMSLTALREVLLEAEQSL [K16V],3.11
2,SEVEELNMSLTALREPLLEAEQSL [K16P],5.38
3,SEVEELNMSLTALRECLLEAEQSL [K16C],3.24
4,SEVEELNMSLTALRERLLEAEQSL [K16R],3.06
5,SEVEELNMSLTALREELLEAEQSL [K16E],3.19
6,SEVEELNMSLTALREQLLEAEQSL [K16Q],2.83
7,SEVEELNMSLTALREMLLEAEQSL [K16M],2.26
8,SEVEELNMSLTALREHLLEAEQSL [K16H],2.83
9,SEVEELNMSLTALREALLEAEQSL [K16A],3.42
10,SEVEELNMSLTALREILLEAEQSL [K16I],2.92
11,SEVEELNMSLTALREWLLEAEQSL [K16W],3.27
12,SEVEELNMSLTALRENLLEAEQSL [K16N],1.72
13,SEVEELNMSLTALREFLLEAEQSL [K16F],1.99
14,SEVEELNMSLTALRETLLEAEQSL [K16T],2.83
15,SEVEELNMSLTALREDLLEAEQSL [K16D],4.25
16,SEVEELNMSLTALREKLLEAEQSV [L24V],2.25
17,SEVEELNMSLTALREKLLEAEQSW [L24W],3.74
18,SEVEELNMSLTALREKLLEAEQSC [L24C],3.82
19,SEVEELNMSLTALREKLLEAEQSG [L24G],5.01
20,SEVEELNMSLTALREKLLEAEQSR [L24R],4.23
21,SEVEELNMSLTALREKLLEAEQSP [L24P],4.99
22,SEVEELNMSLTALREKLLEAEQST [L24T],4.97
23,SEVEELNMSLTALREKLLEAEQSN [L24N],4.97

row,Variant,protein stability index
1,SEVEELNMSLTALREKLLEAEQSA [L24A],4.18
2,SEVEELNMSLTALREKLLEAEQSQ [L24Q],4.78
3,SEVEELNMSLTALREKLLEAEQSK [L24K],5.14
4,SEVEELNMSLTALREKLLEAEQSF [L24F],4.51
5,SEVEELNMSLTALREKLLEAEQSD [L24D],5.19
6,SEVEELNMSLTALREKLLEAEQSM [L24M],4.18
7,SEVEELNMSLTALREKLLEAEQSH [L24H],4.41
8,SEVEELNMSLTALREKLLEAEQSI [L24I],3.1
9,SEVEELNMSLTALREKLLEAEQSE [L24E],4.69
10,SEVEELNMSLTALREKLLEAEQSY [L24Y],3.82
11,SEVEELNMSLTALREKLLEAEQSS [L24S],4.63
12,SEVEELNMSLTALREKLLEAEYSL [Q22Y],1.94
13,SEVEELNMSLTALREKLLEAEFSL [Q22F],1.75
14,SEVEELNMSLTALREKLLEAEESL [Q22E],3.37
15,SEVEELNMSLTALREKLLEAEVSL [Q22V],2.23
16,SEVEELNMSLTALREKLLEAEGSL [Q22G],3.6
17,SEVEELNMSLTALREKLLEAEPSL [Q22P],3.99
18,SEVEELNMSLTALREKLLEAENSL [Q22N],2.54
19,SEVEELNMSLTALREKLLEAEKSL [Q22K],3.36
20,SEVEELNMSLTALREKLLEAEASL [Q22A],2.81
21,SEVEELNMSLTALREKLLEAERSL [Q22R],2.64
22,SEVEELNMSLTALREKLLEAETSL [Q22T],3.64
23,SEVEELNMSLTALREKLLEAEHSL [Q22H],2.5

row,Variant,protein stability index
1,SEVEELNMSLTALREKLLEAEISL [Q22I],1.72
2,SEVEELNMSLTALREKLLEAESSL [Q22S],3.44
3,SEVEELNMSLTALREKLLEAELSL [Q22L],1.96
4,SEVEELNMSLTALREKLLEAEDSL [Q22D],2.48
5,SEVEELNMSLTALREKLLEAEWSL [Q22W],1.89
6,SEVEELNMSLTALREKLLEAEMSL [Q22M],1.91
7,SEVEELNMSLTALREKLLEAECSL [Q22C],2.37
8,SEVEELNMSLTALREKLREAEQSL [L18R],3.67
9,SEVEELNMSLTALREKLSEAEQSL [L18S],4.65
10,SEVEELNMSLTALREKLKEAEQSL [L18K],4.74
11,SEVEELNMSLTALREKLTEAEQSL [L18T],4.54
12,SEVEELNMSLTALREKLYEAEQSL [L18Y],3.92
13,SEVEELNMSLTALREKLMEAEQSL [L18M],2.71
14,SEVEELNMSLTALREKLFEAEQSL [L18F],3.32
15,SEVEELNMSLTALREKLGEAEQSL [L18G],4.45
16,SEVEELNMSLTALREKLQEAEQSL [L18Q],4.23
17,SEVEELNMSLTALREKLWEAEQSL [L18W],2.86
18,SEVEELNMSLTALREKLDEAEQSL [L18D],5.37
19,SEVEELNMSLTALREKLCEAEQSL [L18C],4.07
20,SEVEELNMSLTALREKLEEAEQSL [L18E],5.08
21,SEVEELNMSLTALREKLVEAEQSL [L18V],3.94
22,SEVEELNMSLTALREKLPEAEQSL [L18P],5.43
